In patent US20250215412A1 (NOVOZYMES A S, published 2025) one finds Leakage activity, Relative activity of maturated deamidase (% initial rate) and NanoDSF thermal unfolding temperature data, which are given here for 28 molecules.

In the test the target is T1, Chryseobacterium sp-62563 deamidase polypeptide (second polypeptide, deamidase domain), wildtype (Chryseobacterium sp-62563).
T1 sequence: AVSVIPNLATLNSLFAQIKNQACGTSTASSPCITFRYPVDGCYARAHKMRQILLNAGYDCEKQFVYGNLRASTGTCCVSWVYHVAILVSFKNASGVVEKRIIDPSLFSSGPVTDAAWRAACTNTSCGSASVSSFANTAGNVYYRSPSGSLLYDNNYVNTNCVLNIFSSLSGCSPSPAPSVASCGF
In words: cell-based or functional assay.

Some results are limits rather than exact numbers.

B1: Chryseobacterium sp-62563 propeptide Y45S (protein)
chain: NQDPNLVAKESNETAMKDFGKTVPVGIEKEDGKFKISFMVTAQPSEIKDSKENAAYISMIKTAVENETPIHVFLKANTNEIAKVDKATDDDIRYFKSVFTKEVKEENRK
B1 yielded a Leakage activity of 0% and a Relative activity of maturated deamidase (% initial rate) greater than 100.

B2: Chryseobacterium sp-62563 propeptide F73D (protein)
chain: NQDPNLVAKESNETAMKDFGKTVPVGIEKEDGKFKISFMVTAQPYEIKDSKENAAYISMIKTAVENETPIHVDLKANTNEIAKVDKATDDDIRYFKSVFTKEVKEENRK
B2 showed a Leakage activity of 2% and a Relative activity of maturated deamidase (% initial rate) of 31.

B3: Chryseobacterium sp-62563 propeptide A76P (protein)
chain: NQDPNLVAKESNETAMKDFGKTVPVGIEKEDGKFKISFMVTAQPYEIKDSKENAAYISMIKTAVENETPIHVFLKPNTNEIAKVDKATDDDIRYFKSVFTKEVKEENRK
Take B3: the Leakage activity was 3%.

B4: Chryseobacterium sp-62563 propeptide V64L (protein)
chain: NQDPNLVAKESNETAMKDFGKTVPVGIEKEDGKFKISFMVTAQPYEIKDSKENAAYISMIKTALENETPIHVFLKANTNEIAKVDKATDDDIRYFKSVFTKEVKEENRK
B4 came in with a Leakage activity of 0% and a Relative activity of maturated deamidase (% initial rate) of 49.

B5: Chryseobacterium sp-62563 propeptide R93P (protein)
chain: NQDPNLVAKESNETAMKDFGKTVPVGIEKEDGKFKISFMVTAQPYEIKDSKENAAYISMIKTAVENETPIHVFLKANTNEIAKVDKATDDDIPYFKSVFTKEVKEENRK
As for B5, the Leakage activity was found to be 4% and the Relative activity of maturated deamidase (% initial rate) is greater than 100.

B6: Chryseobacterium sp-62563 propeptide D90P (protein)
chain: NQDPNLVAKESNETAMKDFGKTVPVGIEKEDGKFKISFMVTAQPYEIKDSKENAAYISMIKTAVENETPIHVFLKANTNEIAKVDKATDPDIRYFKSVFTKEVKEENRK
Molecule B6 displayed a Leakage activity of 0% and a Relative activity of maturated deamidase (% initial rate) of 55.

B7: Chryseobacterium sp-62563 propeptide P69W (protein)
chain: NQDPNLVAKESNETAMKDFGKTVPVGIEKEDGKFKISFMVTAQPYEIKDSKENAAYISMIKTAVENETWIHVFLKANTNEIAKVDKATDDDIRYFKSVFTKEVKEENRK
On to B7, for which the Leakage activity was 0% and the Relative activity of maturated deamidase (% initial rate) was greater than 100.

B8: Chryseobacterium sp-62563 propeptide E52P (protein)
chain: NQDPNLVAKESNETAMKDFGKTVPVGIEKEDGKFKISFMVTAQPYEIKDSKPNAAYISMIKTAVENETPIHVFLKANTNEIAKVDKATDDDIRYFKSVFTKEVKEENRK
For the molecule B8, the Leakage activity was found to be 0%.

B9: Chryseobacterium sp-62563 propeptide Y94Q (protein)
chain: NQDPNLVAKESNETAMKDFGKTVPVGIEKEDGKFKISFMVTAQPYEIKDSKENAAYISMIKTAVENETPIHVFLKANTNEIAKVDKATDDDIRQFKSVFTKEVKEENRK
As for B9, the Leakage activity is 0%.

B10: Chryseobacterium sp-62563 propeptide F95D (protein)
chain: NQDPNLVAKESNETAMKDFGKTVPVGIEKEDGKFKISFMVTAQPYEIKDSKENAAYISMIKTAVENETPIHVFLKANTNEIAKVDKATDDDIRYDKSVFTKEVKEENRK
In turn, B10 gave a Leakage activity of 7% and a Relative activity of maturated deamidase (% initial rate) of 44.

B11: Chryseobacterium sp-62563 propeptide V98P (protein)
chain: NQDPNLVAKESNETAMKDFGKTVPVGIEKEDGKFKISFMVTAQPYEIKDSKENAAYISMIKTAVENETPIHVFLKANTNEIAKVDKATDDDIRYFKSPFTKEVKEENRK
B11 registered a Leakage activity of 2% and a Relative activity of maturated deamidase (% initial rate) greater than 100.

B12: Chryseobacterium sp-62563 propeptide L74S (protein)
chain: NQDPNLVAKESNETAMKDFGKTVPVGIEKEDGKFKISFMVTAQPYEIKDSKENAAYISMIKTAVENETPIHVFSKANTNEIAKVDKATDDDIRYFKSVFTKEVKEENRK
The molecule B12 returned a Leakage activity of 0% and a Relative activity of maturated deamidase (% initial rate) of 40.

B13: Chryseobacterium sp-62563 propeptide Y94E (protein)
chain: NQDPNLVAKESNETAMKDFGKTVPVGIEKEDGKFKISFMVTAQPYEIKDSKENAAYISMIKTAVENETPIHVFLKANTNEIAKVDKATDDDIREFKSVFTKEVKEENRK
With B13, the Leakage activity was found to be 0%.

B14: Chryseobacterium sp-62563 propeptide F99C (protein)
chain: NQDPNLVAKESNETAMKDFGKTVPVGIEKEDGKFKISFMVTAQPYEIKDSKENAAYISMIKTAVENETPIHVFLKANTNEIAKVDKATDDDIRYFKSVCTKEVKEENRK
On to B14, for which the Leakage activity is 0% and the Relative activity of maturated deamidase (% initial rate) was 52.

B15: Chryseobacterium sp-62563 propeptide P69Y (protein)
chain: NQDPNLVAKESNETAMKDFGKTVPVGIEKEDGKFKISFMVTAQPYEIKDSKENAAYISMIKTAVENETYIHVFLKANTNEIAKVDKATDDDIRYFKSVFTKEVKEENRK
For the molecule B15, the Leakage activity worked out at 0% and the Relative activity of maturated deamidase (% initial rate) was greater than 100.

B16: Chryseobacterium sp-62563 propeptide F73T (protein)
chain: NQDPNLVAKESNETAMKDFGKTVPVGIEKEDGKFKISFMVTAQPYEIKDSKENAAYISMIKTAVENETPIHVTLKANTNEIAKVDKATDDDIRYFKSVFTKEVKEENRK
Regarding B16, the Leakage activity is 0% and the Relative activity of maturated deamidase (% initial rate) stood at 42.

B17: Chryseobacterium sp-62563 propeptide Y94T (protein)
chain: NQDPNLVAKESNETAMKDFGKTVPVGIEKEDGKFKISFMVTAQPYEIKDSKENAAYISMIKTAVENETPIHVFLKANTNEIAKVDKATDDDIRTFKSVFTKEVKEENRK
Take B17: the Leakage activity was 0% and the Relative activity of maturated deamidase (% initial rate) is greater than 100.

B18: Chryseobacterium sp-62563 propeptide Y94I (protein)
chain: NQDPNLVAKESNETAMKDFGKTVPVGIEKEDGKFKISFMVTAQPYEIKDSKENAAYISMIKTAVENETPIHVFLKANTNEIAKVDKATDDDIRIFKSVFTKEVKEENRK
In the case of B18, the Leakage activity came out at 0% and the Relative activity of maturated deamidase (% initial rate) came to 60.

B19: Chryseobacterium sp-62563 propeptide K86G (protein)
chain: NQDPNLVAKESNETAMKDFGKTVPVGIEKEDGKFKISFMVTAQPYEIKDSKENAAYISMIKTAVENETPIHVFLKANTNEIAKVDGATDDDIRYFKSVFTKEVKEENRK
As for B19, the Leakage activity was 0% and the Relative activity of maturated deamidase (% initial rate) was 34.

B20: Chryseobacterium sp-62563 propeptide V98Y (protein)
chain: NQDPNLVAKESNETAMKDFGKTVPVGIEKEDGKFKISFMVTAQPYEIKDSKENAAYISMIKTAVENETPIHVFLKANTNEIAKVDKATDDDIRYFKSYFTKEVKEENRK
B20 gave a Leakage activity of 0% and a Relative activity of maturated deamidase (% initial rate) of 31.

B21: Chryseobacterium sp-62563 propeptide F95G (protein)
chain: NQDPNLVAKESNETAMKDFGKTVPVGIEKEDGKFKISFMVTAQPYEIKDSKENAAYISMIKTAVENETPIHVFLKANTNEIAKVDKATDDDIRYGKSVFTKEVKEENRK
The molecule B21 displayed a Leakage activity of 0% and a Relative activity of maturated deamidase (% initial rate) of 91.

B22: Chryseobacterium sp-62563 propeptide V7P (protein)
chain: NQDPNLPAKESNETAMKDFGKTVPVGIEKEDGKFKISFMVTAQPYEIKDSKENAAYISMIKTAVENETPIHVFLKANTNEIAKVDKATDDDIRYFKSVFTKEVKEENRK
B22: the Leakage activity was determined as 0%.

B23: Chryseobacterium sp-62563 propeptide T88P (protein)
chain: NQDPNLVAKESNETAMKDFGKTVPVGIEKEDGKFKISFMVTAQPYEIKDSKENAAYISMIKTAVENETPIHVFLKANTNEIAKVDKAPDDDIRYFKSVFTKEVKEENRK
With B23, the Leakage activity was 0% and the Relative activity of maturated deamidase (% initial rate) turned out to be 46.

B24: Chryseobacterium sp-62563 propeptide E67P (protein)
chain: NQDPNLVAKESNETAMKDFGKTVPVGIEKEDGKFKISFMVTAQPYEIKDSKENAAYISMIKTAVENPTPIHVFLKANTNEIAKVDKATDDDIRYFKSVFTKEVKEENRK
Take B24: the Leakage activity was determined as 2% and the Relative activity of maturated deamidase (% initial rate) turned out to be 53.

B25: Chryseobacterium sp-62563 propeptide Y94P (protein)
chain: NQDPNLVAKESNETAMKDFGKTVPVGIEKEDGKFKISFMVTAQPYEIKDSKENAAYISMIKTAVENETPIHVFLKANTNEIAKVDKATDDDIRPFKSVFTKEVKEENRK
Turning to B25, the Leakage activity came out at 3%, the NanoDSF thermal unfolding temperature came out at 75.2 ° C and the Relative activity of maturated deamidase (% initial rate) was found to be 76.

B26: Chryseobacterium sp-62563 propeptide Y94A (protein)
chain: NQDPNLVAKESNETAMKDFGKTVPVGIEKEDGKFKISFMVTAQPYEIKDSKENAAYISMIKTAVENETPIHVFLKANTNEIAKVDKATDDDIRAFKSVFTKEVKEENRK
Molecule B26 displayed a Leakage activity of 0% and a Relative activity of maturated deamidase (% initial rate) of 72.

B27: Chryseobacterium sp-62563 propeptide D49P (protein)
chain: NQDPNLVAKESNETAMKDFGKTVPVGIEKEDGKFKISFMVTAQPYEIKPSKENAAYISMIKTAVENETPIHVFLKANTNEIAKVDKATDDDIRYFKSVFTKEVKEENRK
The molecule B27 came in with a Leakage activity of 0%.

B28: Chryseobacterium sp-62563 propeptide Y45T (protein)
chain: NQDPNLVAKESNETAMKDFGKTVPVGIEKEDGKFKISFMVTAQPTEIKDSKENAAYISMIKTAVENETPIHVFLKANTNEIAKVDKATDDDIRYFKSVFTKEVKEENRK
For B28, the Leakage activity turned out to be 2%, the NanoDSF thermal unfolding temperature was 73.7 ° C and the Relative activity of maturated deamidase (% initial rate) is greater than 100.
